Measurements published in publication doi:10.1101/2020.04.11.018549v1 (biorxiv, 2020).

T1: RjoADP-GlcPPase (Rhodococcus jostii, UniProt Q0S3Y4)
T1 sequence (Q0S3Y4 1-404): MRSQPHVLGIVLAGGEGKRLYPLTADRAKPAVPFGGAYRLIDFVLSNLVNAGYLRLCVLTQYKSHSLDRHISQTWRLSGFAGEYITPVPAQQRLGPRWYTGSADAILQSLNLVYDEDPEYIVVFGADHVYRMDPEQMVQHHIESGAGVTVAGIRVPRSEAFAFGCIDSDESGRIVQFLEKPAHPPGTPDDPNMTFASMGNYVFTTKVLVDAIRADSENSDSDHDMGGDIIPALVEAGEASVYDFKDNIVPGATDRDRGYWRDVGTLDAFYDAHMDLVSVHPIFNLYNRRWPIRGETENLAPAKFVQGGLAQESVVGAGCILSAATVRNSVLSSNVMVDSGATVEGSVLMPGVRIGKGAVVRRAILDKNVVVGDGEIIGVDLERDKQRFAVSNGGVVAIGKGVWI


Key:
RjoADP-GlcPPase = molecular target: T1, RjoADP-GlcPPase; test: Pi release; format: biochemical; settings: read-out: S0.5; no effector; ATP, 10 mM MgCl2, pH 8.0, 37°C
purified protein [1] = substrate: Nc1ncnc2c1ncn2[C@@H]1O[C@H](COP(=O)(O)OP(=O)(O)OP(=O)(O)O)[C@@H](O)[C@H]1O; test: purified protein; settings: no effector, Glc-1P, 10 mM MgCl2, pH 8.0, 37°C
purified protein [2] = substrate: O=P(O)(O)O[C@H]1O[C@H](CO)[C@@H](O)[C@H](O)[C@H]1O; test: purified protein; settings: no effector, ATP, 10 mM MgCl2, pH 8.0, 37°C

Molecule | Km (RjoADP-GlcPPase) | K0.5 (purified protein [1]) | K0.5 (purified protein [2]) | kcat (purified protein [2])
O=P(O)(O)O[C@H]1O[C@H](CO)[C@@H](O)[C@H](O)[C@H]1O [Glc-1P] | 1800 µM | – | – | –
RfaADP-GlcPPase (Rhodococcoides fascians) (protein) MRTQPHVLGIVLAGGEGKRLYPMTADRAKPAVPFGGAYRLIDFVLSNLVNAGYLRLCVLTQYKSHSLDRHISQTWRLSGFAGEYITPVPAQQRLGPRWYTGSADAIFQSLNLVYDEDPEYIVVFGADHVYRMDPEQMVQQHIDSGAGVTVAGIRVPRSEAFAFGCIDSDENGKITQFLEKPAQPPGTPDDPDVTYASMGNYVFTTKVLVDAIKADSENSDSDHDMGGDIIPALVEAGVASVYDFNDNVVPGATERDRGYWRDVGTIDAFYDAHMDLVSVHPIFNLYNRRWPIRGSAENLPPAKFVQGGLAQESVVGAGCILSAATVRNSVLSSNVMIDSGATVEGSVLMPGVRIGKGAVVRHAILDKNVVVGDGEIVGVDLERDRERFNVSAGGVVSVGKGVWI | – | 0.58 mM | 1.17 ± 0.08 mM | 8.8 s⁻¹
